Measurements as given in publication PMC9787417 (Pathogens, 2022).

Columns and labels:
[1] = target: 14-3-3β (Homo sapiens) (UniProt P31946); details: cited from earlier work
[2] = target: the molecule itself; assay: mass photometry

14-3-3β (Homo sapiens), sequence (P31946 2-246): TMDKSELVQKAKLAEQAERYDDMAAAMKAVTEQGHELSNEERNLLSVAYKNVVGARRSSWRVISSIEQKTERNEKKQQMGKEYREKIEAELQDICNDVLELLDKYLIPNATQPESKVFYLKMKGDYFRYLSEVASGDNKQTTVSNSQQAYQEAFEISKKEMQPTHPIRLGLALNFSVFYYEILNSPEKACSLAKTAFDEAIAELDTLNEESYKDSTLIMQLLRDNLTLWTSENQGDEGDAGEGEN
ExoS ART domain, sequence (G3XDA1 233-453): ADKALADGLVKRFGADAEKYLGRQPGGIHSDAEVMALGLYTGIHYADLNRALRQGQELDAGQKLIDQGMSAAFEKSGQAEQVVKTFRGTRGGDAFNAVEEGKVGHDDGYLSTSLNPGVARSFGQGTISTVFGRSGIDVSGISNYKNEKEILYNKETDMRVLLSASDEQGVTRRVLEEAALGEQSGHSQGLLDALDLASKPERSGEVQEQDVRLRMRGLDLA

Row | Molecule | Kd [1] [nM] | stoichiometry N [2]
1 | ExoS ART domain (from UniProt G3XDA1) | 40 | –
2 | human 14-3-3β, individually expressed, with affinity tag (natural protein, also called purified 14-3-3β) MTMDKSELVQKAKLAEQAERYDDMAAAMKAVTEQGHELSNEERNLLSVAYKNVVGARRSSWRVISSIEQKTERNEKKQQMGKEYREKIEAELQDICNDVLELLDKYLIPNATQPESKVFYLKMKGDYFRYLSEVASGDNKQTTVSNSQQAYQEAFEISKKEMQPTHPIRLGLALNFSVFYYEILNSPEKACSLAKTAFDEAIAELDTLNEESYKDSTLIMQLLRDNLTLWTSENQGDEG | – | 2
3 | human 14-3-3β, un-tagged, co-expressed with the exotoxin ART domains (natural protein) MTMDKSELVQKAKLAEQAERYDDMAAAMKAVTEQGHELSNEERNLLSVAYKNVVGARRSSWRVISSIEQKTERNEKKQQMGKEYREKIEAELQDICNDVLELLDKYLIPNATQPESKVFYLKMKGDYFRYLSEVASGDNKQTTVSNSQQAYQEAFEISKKEMQPTHPIRLGLALNFSVFYYEILNSPEKACSLAKTAFDEAIAELDTLNEESYKDSTLIMQLLRDNLTLWTSENQGDEG | – | 2
